Test results published in patent US20190327974A1, “SYNERGISTS FOR IMPROVED PESTICIDES” (priority 2017, published 2019).

Assays:
[1] = test system: other serine hydrolases (e.g. α-lytic protease); conditions: cited from earlier work
[2] = test system: CCCC(=O)Oc1ccc([N+](=O)[O-])cc1; test: Inhibition of Gly137Asp LcαE7, 4-nitrophenol butyrate hydrolysis; assay type: biochemical, Lucilia cuprina; conditions: other: Gly137Asp αE7, room temperature; pH 7.5
Excerpt: (§1) The term “carboxyethylesterase” (CBE), refers to insect carboxylesterases from the alpha and beta and non-microsomal gene clusters, as defined in Oakeshott, Claudianos, Campbell, Newcomb and Russell, “Biochemical Genetic and Genomics of Insect Esterases”, pp 309-381, Chapter 10, Volume 5, 2005, Eds. Gilbert, Iatrou, Gill, published—Elsevier which is incorporated herein by reference. The αE7 CBE is an example of an alpha esterase, and is found in the sheep blowfly, Lucilia cuprina, with homologous genes being present in other insect pests. […]
(§2) His6-tagged proteins were expressed in BL21(DE3) E. coli (Invitrogen) at 26° C. for 18 hours. […] Protein concentration was determined by measuring the absorbance at 280 nm with an extinction coefficient calculated using the Protparam online server (Gasteiger, E. et al. Protein identification and analysis tools on the ExPASy server. Proteomics Protoc. Handb. 571-607 (2005). doi:10.1385/1-59259-890-0:571).
(§3) Inhibition of wild-type αE7 and the Gly137Asp αE7 variant was determined by a competition assay between the native-substrate analogue 4-nitrophenol butyrate (Sigma) and the boronic acid compounds. Initially, the Michalis constant (KM) with 4-nitrophenol butyrate was measured for both enzymes to determine an appropriate concentration of substrate for use in the competition assays. […]

[3] = test system: CCCC(=O)Oc1ccc([N+](=O)[O-])cc1; test: Inhibition of wild-type LcαE7, 4-nitrophenol butyrate hydrolysis; assay type: biochemical, Lucilia cuprina; conditions: other: wildtype αE7, room temperature; pH 7.5
Excerpt: as §1, §2, §3

Compound: OB(O)c1ccccc1 [PBA, phenylboronic acid]
- inhibition of other serine hydrolases [1]: micromolar to millimolar inhibition

Compound: Lucilia cuprina αE7 carboxylesterase (LcαE7) variant Gly137Asp (Lucilia cuprina; G137D)
- Km [2]: 250 µM

Compound: Lucilia cuprina αE7 carboxylesterase (LcαE7), wild type, GenBank AAB67728.1 (Lucilia cuprina)
- Km [3]: 15 µM
